Assay [1] concerns the target T1, EGFR on CHO cells (CHO-EGFR) (UniProt P00533 25-1210, limits assumed).
T1 construct: whole, on cells
As to the kind of experiment: FACS on CHO-EGFR cells, purified IgG, R-PE anti-mouse IgG. How it is done: (§1) CHO-Her2, CHO-Her4, CHO-EGFR cells were harvested and resuspended in PBS, 2% FBS at a concentration of approximately 1×10⁶/ml. Cells were stained with purified IgGs at 4° C. for 40 min. Cells were washed with 4 mL PBS, 2% FBS, then centrifuged at 1200 rpm for 10 minutes. Supernatant was removed. Cells were stained with R-PE conjugated anti-mouse IgG at 4° C. for 30 min. Cells were washed with 4 mL PBS, 2% FBS, then centrifuged at 1200 rpm for 10 minutes. Supernatant was removed and cell pellets were fixed in 1% formaldehyde. Cells were analyzed on a FACS Calibur (BD Biosciences) by collecting 20,000 events from gate 1.

The target in assay [2] is T2, Her3/Avi/His10 receptor (Homo sapiens (Human), UniProt P21860 20-643, limits assumed).
T2 construct: Soluble tagged receptor of the AlphaScreen assay; The antibodies are called anti-hHer3 there; not shown: Avi tag; His10 tag (ten histidines by its name)
T2 sequence (P21860 20-643 limits assumed): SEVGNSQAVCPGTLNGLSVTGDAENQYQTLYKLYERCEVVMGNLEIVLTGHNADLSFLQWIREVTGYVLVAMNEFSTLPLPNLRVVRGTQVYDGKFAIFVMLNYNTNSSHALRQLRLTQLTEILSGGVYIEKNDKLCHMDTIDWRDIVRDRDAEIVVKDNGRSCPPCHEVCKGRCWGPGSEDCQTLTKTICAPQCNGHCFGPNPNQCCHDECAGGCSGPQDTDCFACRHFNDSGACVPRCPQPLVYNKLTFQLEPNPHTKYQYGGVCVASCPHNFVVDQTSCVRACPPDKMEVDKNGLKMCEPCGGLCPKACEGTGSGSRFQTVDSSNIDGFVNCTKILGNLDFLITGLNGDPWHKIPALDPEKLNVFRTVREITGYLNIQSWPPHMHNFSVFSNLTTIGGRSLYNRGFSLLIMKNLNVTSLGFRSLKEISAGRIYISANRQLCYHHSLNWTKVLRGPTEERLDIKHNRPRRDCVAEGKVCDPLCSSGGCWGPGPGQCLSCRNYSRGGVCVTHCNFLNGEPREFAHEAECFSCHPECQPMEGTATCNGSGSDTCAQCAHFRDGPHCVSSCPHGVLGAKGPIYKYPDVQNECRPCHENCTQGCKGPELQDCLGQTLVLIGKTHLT
As to the kind of experiment: AlphaScreen competition; antibody titrated against 10 nM biotinylated NRG-1 beta and 10 nM Her3/Avi/His10; n = 3. The procedure:
(§2) SDI or Genovac purified anti-hHer3 Mabs were serially diluted two-fold into an assay buffer made from 25 mM Hepes, 100 mM NaCl, 0.5% BSA and 0.05% Tween20 in an opaque/white, half-well area plate (Costar). Mouse IgG1 antibody was used as a negative control (Southern Biotech; cat #010201). Biotinylated NRG-1 beta ligand and Her3/Avi/His₁₀ receptor were added sequentially at 10 nM concentration to the assay plate containing serially diluted antibodies. This mixture of receptor, ligand and the antibodies was incubated at room temperature with gentle shaking for 90 minutes. AlphaScreen Streptavidin Donor beads and His-Nickel chelate Acceptor beads were added into the assay at a final concentration of 20 μg/ml each. The light sensitive beads were handled under chromagreen filtered light. The assay plates were covered with foil and incubated at room temperature with gentle shaking for 1 hour. The plates were read in PE EnVision plate reader equipped with an Alpha module (dedicated laser for excitation and designed to measure the signal above the well). Table 7 listed IC₅₀ values in ligand blocking that were estimated using four parameter curve fitting with concentration titration graphs (FIGS. 7 A&B).

The target of assay [3] is T3, human Her3 receptor on cells (T47D, MCF7) (human, UniProt P21860 20-1342). As to the kind of experiment: cell-based or functional assay.
T3 sequence (P21860 20-1342 limits assumed, stated change not applied): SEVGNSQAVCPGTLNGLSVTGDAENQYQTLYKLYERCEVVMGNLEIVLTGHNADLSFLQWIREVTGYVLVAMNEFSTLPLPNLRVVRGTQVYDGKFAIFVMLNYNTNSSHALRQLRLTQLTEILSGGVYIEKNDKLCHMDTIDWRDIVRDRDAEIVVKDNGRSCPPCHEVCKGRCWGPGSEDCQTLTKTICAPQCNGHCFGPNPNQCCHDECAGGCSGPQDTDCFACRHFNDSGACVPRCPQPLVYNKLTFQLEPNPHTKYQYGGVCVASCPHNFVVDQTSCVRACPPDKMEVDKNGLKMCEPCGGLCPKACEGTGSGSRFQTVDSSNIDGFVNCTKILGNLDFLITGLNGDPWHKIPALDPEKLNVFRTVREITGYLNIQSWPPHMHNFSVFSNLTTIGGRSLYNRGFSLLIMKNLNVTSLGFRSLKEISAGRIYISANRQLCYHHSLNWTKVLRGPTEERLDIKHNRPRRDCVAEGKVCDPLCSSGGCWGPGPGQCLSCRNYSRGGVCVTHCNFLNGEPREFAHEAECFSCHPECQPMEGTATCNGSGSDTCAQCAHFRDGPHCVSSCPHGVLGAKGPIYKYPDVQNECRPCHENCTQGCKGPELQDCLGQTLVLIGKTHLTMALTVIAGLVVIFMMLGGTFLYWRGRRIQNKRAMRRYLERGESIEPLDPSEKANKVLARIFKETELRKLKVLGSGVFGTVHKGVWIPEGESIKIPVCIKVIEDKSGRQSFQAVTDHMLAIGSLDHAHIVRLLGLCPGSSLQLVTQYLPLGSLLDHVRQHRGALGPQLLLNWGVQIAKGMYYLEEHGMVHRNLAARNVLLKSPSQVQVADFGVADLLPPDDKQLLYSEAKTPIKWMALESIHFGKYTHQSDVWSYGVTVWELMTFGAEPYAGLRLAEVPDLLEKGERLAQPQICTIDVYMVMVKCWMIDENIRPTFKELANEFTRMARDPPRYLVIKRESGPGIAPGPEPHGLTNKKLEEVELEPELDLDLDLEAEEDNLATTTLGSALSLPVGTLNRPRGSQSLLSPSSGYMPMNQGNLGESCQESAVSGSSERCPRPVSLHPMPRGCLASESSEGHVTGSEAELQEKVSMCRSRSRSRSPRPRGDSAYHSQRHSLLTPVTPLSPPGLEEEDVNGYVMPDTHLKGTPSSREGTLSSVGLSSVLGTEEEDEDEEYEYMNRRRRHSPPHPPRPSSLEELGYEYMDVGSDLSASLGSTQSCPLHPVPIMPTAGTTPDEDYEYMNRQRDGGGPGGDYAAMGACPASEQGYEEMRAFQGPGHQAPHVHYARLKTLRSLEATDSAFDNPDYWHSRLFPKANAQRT
The next assay has as its target T4, mouse HER3/ErbB3 (mouse, UniProt Q61526).
T4 construct: receptor expressed on CHO cells; also called mouse Her3 receptor on CHO cells
As to the kind of experiment: FACS, purified IgG on CHO cells expressing mouse Her3, R-PE anti-mouse IgG. The procedure: as §1, with “CHO cell lines expressing human or mouse Her3 receptors were used to study species-cross reactivity. Cells” for “CHO-Her2, CHO-Her4, CHO-EGFR cells”
In general terms: In flow cytometry, cells or beads pass a laser one at a time.

Assay [4] concerns the target T5, Recombinant Human Her3 (Her3/ErbB3 extracellular domain) (human, UniProt P21860 20-643).
T5 construct: Analyte of the BIAcore assay; also called Her3 ECD; human Her3/ErbB3 extracellular domain
Description: SPR (BIAcore), Mab captured by anti-IgG Fc on CM5 chip, recombinant human Her3 as analyte, 25 °C. How it is done:
All experiments were performed at 25° C. at a flow rate of 40 μl/min. To prepare a BIAcore assay, an anti-human IgG-Fc antibody (50 μg/ml each in acetate buffer, pH 5.0) was immobilized onto a carboxymethyl dextran sensorchip (CM5) using amine coupling procedures as described by the manufacturer. 10000 resonance units (RU) of anti-mouse IgG Fc antibodies were linked respectively onto Flowcells (FC) 1 and 2. Purified Mabs to be tested were diluted at a concentration of 5 μg/ml in 0.5% P20, HBS-EP buffer and injected on FC2 to reach 500 to 1000 RU. FC1 was used as the reference cell. Specific signals correspond to the difference of signals obtained on FC2 versus FC1. The analyte (Recombinant Human Her3, apparent molecular weight 97 kDa) was injected during 90 sec at 5 different concentrations (100, 50, 25, 12.5 and 6.25 nM) in 0.5% P20, HBS-EP buffer. These concentrations were prepared from stock solution in 0.5% P20, HBS-EP. The dissociation phase of the analyte was monitored over a 10 minutes period. Running buffer was also injected under the same conditions as a double reference. After each cycle (antibody+Her3 injection), both Flowcells were regenerated by injecting 20 to 45 μl of Glycine-HCl buffer pH 1.5. This regeneration is sufficient to eliminate all Mabs and Mabs/Her3 complexes captured on the sensorchip. Table 1 listed binding KD for Her3 binding monoclonal antibodies.

Assay [5] addresses T2, Her3/Avi/His10 receptor. Description: AlphaScreen ligand blocking: antibody titrated against 10 nM biotinylated NRG-1 beta and 10 nM Her3/Avi/His10, % signal. The procedure:
as §2
For orientation: In Alpha technology, singlet oxygen from a donor bead excites a nearby acceptor bead.

For assay [6], the target named is T3, human Her3 receptor on cells (T47D, …). Description: cell-based or functional assay. The source holds these as a separate data set.
Assay [7] shares this target. As to the kind of experiment: cell-based or functional assay. This is another data set of the same source.
Assay [8] deals with T6, Her2 on CHO cells (CHO-Her2) (UniProt P04626 23-1255, limits assumed).
T6 construct: whole, on cells
Description: FACS on CHO-Her2 cells, purified IgG, R-PE anti-mouse IgG. The procedure:
as §1

Assay [9] addresses T7, Her4 on CHO cells (CHO-Her4) (UniProt Q15303 26-1308, limits assumed).
T7 construct: whole, on cells
As to the kind of experiment: FACS on CHO-Her4 cells, purified IgG, R-PE anti-mouse IgG. The procedure: as §1

Assay [10] addresses T3, human Her3 receptor on cells (T47D, …). As to the kind of experiment: cell-based or functional assay. The source holds these as a separate data set.

The values that follow come from patent publication US20120195831A1 (published 2012).

T4 sequence (Q61526 20-1339 limits assumed): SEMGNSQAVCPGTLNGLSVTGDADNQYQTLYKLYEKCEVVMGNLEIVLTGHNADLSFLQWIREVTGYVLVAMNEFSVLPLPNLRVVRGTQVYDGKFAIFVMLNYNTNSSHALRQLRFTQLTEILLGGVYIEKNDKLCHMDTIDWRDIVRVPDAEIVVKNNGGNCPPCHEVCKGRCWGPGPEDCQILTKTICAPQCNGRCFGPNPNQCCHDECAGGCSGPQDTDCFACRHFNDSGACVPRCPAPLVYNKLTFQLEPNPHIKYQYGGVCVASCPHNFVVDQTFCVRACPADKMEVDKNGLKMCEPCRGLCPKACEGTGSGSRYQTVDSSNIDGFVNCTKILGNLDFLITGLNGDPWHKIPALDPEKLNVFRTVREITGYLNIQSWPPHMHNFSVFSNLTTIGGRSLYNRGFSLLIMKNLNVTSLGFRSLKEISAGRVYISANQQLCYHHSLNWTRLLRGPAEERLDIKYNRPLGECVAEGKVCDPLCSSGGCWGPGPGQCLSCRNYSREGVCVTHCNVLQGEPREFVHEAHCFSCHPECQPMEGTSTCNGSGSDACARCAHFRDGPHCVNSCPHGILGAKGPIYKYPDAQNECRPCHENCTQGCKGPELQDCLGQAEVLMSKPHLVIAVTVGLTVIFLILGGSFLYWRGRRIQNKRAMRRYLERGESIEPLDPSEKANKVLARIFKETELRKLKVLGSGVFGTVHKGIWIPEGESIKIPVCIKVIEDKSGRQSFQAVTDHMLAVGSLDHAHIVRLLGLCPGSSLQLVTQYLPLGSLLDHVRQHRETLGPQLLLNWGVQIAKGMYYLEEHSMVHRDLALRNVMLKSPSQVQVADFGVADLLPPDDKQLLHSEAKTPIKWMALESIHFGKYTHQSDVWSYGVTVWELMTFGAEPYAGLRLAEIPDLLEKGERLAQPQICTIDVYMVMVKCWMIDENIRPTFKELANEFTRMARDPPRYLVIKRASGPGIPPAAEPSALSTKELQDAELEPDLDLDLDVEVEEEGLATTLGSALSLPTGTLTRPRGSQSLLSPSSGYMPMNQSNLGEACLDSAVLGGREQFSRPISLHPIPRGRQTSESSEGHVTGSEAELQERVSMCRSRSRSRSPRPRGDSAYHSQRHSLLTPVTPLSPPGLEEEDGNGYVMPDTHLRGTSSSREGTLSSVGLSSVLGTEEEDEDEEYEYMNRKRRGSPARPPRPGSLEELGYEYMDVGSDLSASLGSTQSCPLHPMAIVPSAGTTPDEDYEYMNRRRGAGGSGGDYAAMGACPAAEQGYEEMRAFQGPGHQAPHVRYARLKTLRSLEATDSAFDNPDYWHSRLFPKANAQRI
T5 sequence (P21860 20-643 limits assumed): as the sequence (P21860 20-643 limits assumed) above
T7 sequence (Q15303 26-1308 limits assumed): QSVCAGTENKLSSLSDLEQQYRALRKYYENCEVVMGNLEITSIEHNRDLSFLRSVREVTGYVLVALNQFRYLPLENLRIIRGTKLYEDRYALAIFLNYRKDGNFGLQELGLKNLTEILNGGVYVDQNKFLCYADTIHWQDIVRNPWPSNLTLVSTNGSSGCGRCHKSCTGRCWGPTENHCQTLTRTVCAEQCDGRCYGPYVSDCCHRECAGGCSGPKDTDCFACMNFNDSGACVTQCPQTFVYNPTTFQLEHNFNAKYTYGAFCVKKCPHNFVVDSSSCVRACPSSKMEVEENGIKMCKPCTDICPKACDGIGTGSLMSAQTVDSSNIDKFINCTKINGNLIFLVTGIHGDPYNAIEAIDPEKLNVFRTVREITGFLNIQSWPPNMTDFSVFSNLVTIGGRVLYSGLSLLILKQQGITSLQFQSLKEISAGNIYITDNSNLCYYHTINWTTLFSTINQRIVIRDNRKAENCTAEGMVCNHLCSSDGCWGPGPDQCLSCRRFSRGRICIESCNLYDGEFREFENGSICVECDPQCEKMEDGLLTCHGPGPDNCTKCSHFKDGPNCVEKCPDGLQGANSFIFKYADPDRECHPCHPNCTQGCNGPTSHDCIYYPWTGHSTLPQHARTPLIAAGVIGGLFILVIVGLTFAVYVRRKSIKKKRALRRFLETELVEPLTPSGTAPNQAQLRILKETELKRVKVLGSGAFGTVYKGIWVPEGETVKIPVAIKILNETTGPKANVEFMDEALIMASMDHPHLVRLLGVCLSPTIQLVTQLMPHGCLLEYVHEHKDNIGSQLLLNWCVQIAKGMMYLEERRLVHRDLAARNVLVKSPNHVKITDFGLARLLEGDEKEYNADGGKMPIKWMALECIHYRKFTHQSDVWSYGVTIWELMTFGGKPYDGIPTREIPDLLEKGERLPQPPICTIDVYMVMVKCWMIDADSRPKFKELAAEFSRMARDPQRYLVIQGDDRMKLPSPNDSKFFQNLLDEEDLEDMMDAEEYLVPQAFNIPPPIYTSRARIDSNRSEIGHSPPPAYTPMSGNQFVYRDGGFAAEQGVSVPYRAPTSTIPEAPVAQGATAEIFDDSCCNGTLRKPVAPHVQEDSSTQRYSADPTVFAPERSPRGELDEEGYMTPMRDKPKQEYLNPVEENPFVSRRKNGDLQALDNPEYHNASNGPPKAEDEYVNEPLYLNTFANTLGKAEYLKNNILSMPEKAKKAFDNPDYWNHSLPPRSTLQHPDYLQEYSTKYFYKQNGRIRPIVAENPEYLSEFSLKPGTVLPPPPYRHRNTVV

B1: PO-3H7-E3 (antibody, V domains shown)
VH: EVQLQQSGAELVKPGASVKISCKASGYSFTGYYMNWVKQSHGKSLEWIGNINPYYGGSNYNQKFKARATLTVDKSSSTAYMQLNSLTSEDSAVYYCARKGDLYYSMDYWGQGTSVTVSS
VL: DIVMTQTPLSLPVSLGDQASISCRSSQSIVHSNGNTYLEWYLQKPGQSPKLLIYKVSNRFSGVPDRFSGSGSGTDFTLKISRVEAEDLGIYYCFQGSHVPPTFGGGTKLELKR
notes: Purified mouse IgG from a hybridoma; also called PO-3H7-E3-HC; PO-3H7-E3-LC
For the molecule B1, the binding result in assay [1] is “no binding”; with mouse HER3/ErbB3, “binds”; in assay [8] it was “no binding”; in assay [9] it was “no binding”. Besides, the IC50 (usually the point on the concentration scale where inhibition reaches its midpoint) came out at 12.7 nM with Her3/Avi/His10 receptor [2] and 11 nM with Her3/Avi/His10 receptor [5]. Further, the “IC50 of pAKT inhibition (MCF7 cells stimulated with rhNRG1-β1, ELISA)” value in assay [3] was 45.2 nM. Further, in assay [4], the Kd (commonly a measure of binding affinity in units of concentration) came out at 1.6 nM. The “% Receptor Internalization (T47D cells, FACS)” value in assay [6] is 14%. For the same molecule, the “IC50 of inhibition of pHer3 (MCF7 cells stimulated with rhNRG1-β1, ELISA)” value in assay [7] came to 4.98 nM.

B2: PO-1G2-B6 (antibody, V domains shown)
VH: EVQLQQSGPELVKPGASVKISCKASGYSFTGYHIHWMKQSHVESLEWIGRINPYSGVTDYNQNFKDKANLTVDQSSSTAYMELHSLTSEDSAFYYCARTDYYGPWFAYWGQGTLVTVSA
VL: DIQMTQSPLSLPVSLGDQASISCRSSPSLVHSNGNTYLHWYLQKPGQSPKLLIYTVSNRFSGVPDRFSGSGSGTDFTLKINRVEAEDLGVYFCSQTTHVPWTFGGGTKLEIKR
notes: Purified mouse IgG from a hybridoma; also called PO-1G2-B6-HC; PO-1G2-B6-LC
On to B2, for which the binding result was “no binding” in [1], “binds” with mouse HER3/ErbB3, “no binding” in assay [8] and “no binding” in assay [9]. Moreover, the IC50 in the assay with Her3/Avi/His10 receptor [2] was 72.8 nM; with Her3/Avi/His10 receptor [5] it was 42.6 nM. Besides, the equilibrium dissociation constant (Kd) in assay [4] is 5.5 nM. For the same molecule, the “% Receptor Internalization (T47D cells, FACS)” value in assay [6] was 13%. Moreover, the “IC50 of inhibition of pHer3 (MCF7 cells stimulated with rhNRG1-β1, ELISA)” value in [7] came out at 2.91 nM. In [10], the “IC50 of pERK inhibition (MCF7 cells stimulated with rhNRG1-β1, MSD)” value turned out to be 290 nM.
